These results are taken from patent US20030108548A1 (TOLERANCE THERAPEUTICS, published 2003).

Assay [1] addresses human FcR I and FcR II on cells. Briefly: 125I-human IgG on U937 cells in the absence of inhibitor.
The target in assay [2] is T1, human CD3 complex (human, UniProt P07766 23-207).
T1 construct: whole, on cells; In all assays the target stood on cells as the whole TCR/CD3 complex; also called CD3 antigen; TCR complex
Briefly: competition against FITC-mOKT3 tracer on human PBMC, flow cytometry; affinity calculated from the competitor concentration at half-maximal tracer binding (FIG. 3A).

The target in assay [3] is human FcR I and FcR II on cells. Kind of assay: competitive inhibition of PE-murine IgG2a or 125I-human IgG binding to U937 cells.
Assay [4] deals with T1, human CD3 complex. Kind of assay: competition against FITC-mOKT3 tracer on human PBMC, flow cytometry; affinity calculated from the competitor concentration at half-maximal tracer binding (FIG. 3B).

Turning to 125I-labelled human IgG (antibody), in assay [1], the maximum binding was found to be 2750 cpm and the maximum binding as percent of the total radioactivity added was determined as 15%.

B1: gOKT3-5 (antibody, human IgG4, V domains shown)
VH: QVQLVQSGGGVVQPGRSLRLSCKASGYTFTRYTMHWVRQAPGKGLEWIGYINPSRGYTNYNQKVKDRFTISTDKSKSTAFLQMDSLRPEDTAVYYCARYYDDHYCLDYWGQGTPVTVSS
VL: DIQMTQSPSSLSASVGDRVTITCSASSSVSYMNWYQQTPGKAPKRWIYDTSKLASGVPSRFSGSGSGTDYTFTISSLQPEDIATYYCQQWSSNPFTFGQGTKLQITR
notes: Humanized OKT3, human IgG4/kappa; also called gLC/gHA; gOKT3-5(γ4); not shown: human IgG4 heavy chain constant region; human kappa light chain constant region
With B1, in assay [2], the Ka was 1.1e+09 M⁻¹. In assay [3], this molecule came in with a fold higher concentration for the same inhibition, against murine OKT3 of 10 fold.

B2: gOKT3-7(γ4) (antibody, V domains shown)
VH: QVQLVQSGGGVVQPGRSLRLSCKASGYTFTRYTMHWVRQAPGKGLEWIGYINPSRGYTNYNQKVKDRFTISRDNSKNTAFLQMDSLRPEDTGVYFCARYYDDHYCLDYWGQGTPVTVSS
VL: DIQMTQSPSSLSASVGDRVTITCSASSSVSYMNWYQQTPGKAPKRWIYDTSKLASGVPSRFSGSGSGTDYTFTISSLQPEDIATYYCQQWSSNPFTFGQGTKLQITR
Regarding B2, the Ka in assay [4] is 1.4e+09 M⁻¹.
